Assay results taken from the supplement of paper PMC7125110.
± gives the standard error. Variants at the floor of the assay were thinned out.

B1: glmS ribozyme (parent)
chain: AUAAAAGCGCCAGAACUACAGAAAUGUAGUUGACGAGGAGGAGGUUUAUCGAAUUUUCGGCGGAUGCCUCCAAA

Variants of: B1
Test: self-cleavage kobs at 2500 uM GlcN6P; higher = faster cleavage; RNA array
Settings: with glucosamine-6-phosphate
Method in brief: (§1)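 A hybridised Cy3 probe tracked barcoded ribozyme variants, transcribed in situ by E. coli RNA polymerase on sequenced MiSeq chips, at 37 °C. The variants received 40 μM to 10 mM glucosamine-6-phosphate in HEPES/KCl/Mg(OAc)2 buffer. kobs came from decay fits and kcat and KM from weighted Michaelis–Menten fits.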

Variant	self-cleavage kobs at 2500 uM GlcN6P [s⁻¹]
G13U U57G U65C	< 1e-05
G13A G29U G60U G66A	< 1e-05
A14U C50A C71A	4.46e-05 ± 2.1e-05
C11U U49C U56G	< 1e-05
A14U A52C A53G U55C U57G	< 1e-05
C11U U54C C67A	0.00025 ± 8e-05
A15U U45A U65G	0.00134 ± 0.00059
A14G G51C A64U C67G C71U	< 1e-05
A14G A33U G60U	< 1e-05
G32C A64G C70A	< 1e-05
U31C G32C A39G	0.000381 ± 0.00015
U30A C50G U56A C67U	7.78e-05 ± 1.9e-05
C16A A53U U55A	0.000149 ± 3.9e-05
C11A U45A U56A	9.98e-05 ± 2.9e-05
C11A C16U C71U	0.000223 ± 5.3e-05
A33C G40U G51U U54A	< 1e-05
A12C A15G G43C	< 1e-05
U30G A53C U54A	0.000695 ± 0.00017
C10A G51U C67G	0.000109 ± 5.4e-05
C16A G59U A64U C67G	< 1e-05
C16G G32U G44A G60A	< 1e-05
C11U G29A U49G G62A C67G	< 1e-05
A15G C34A G37C	< 1e-05
A14C A33G G35C G38C G44A A48U C50U	< 1e-05
C11U C19A	0.000235 ± 0.0001
U31C G37C A48G U49G U54C C71A	< 1e-05
C11G A15U A42U U46C	< 1e-05

Variant	self-cleavage kobs at 2500 uM GlcN6P [s⁻¹]
U30C G37C G38C C61U	< 1e-05
A33C G60U G62C	< 1e-05
G32C A33C G37C A48C C71U	< 1e-05
A14G C16G A64G U69G	5.19e-05 ± 2.3e-05
C10A U54C	< 1e-05
A15C G37U G40C	< 1e-05
G32C G38U C58G	< 1e-05
A14G G32U U55G	0.000962 ± 0.00018
C10G G40A G60U	< 1e-05
G13A U65G	8.18e-05 ± 2e-05
A12G A14U G66A	6.8e-05 ± 1.9e-05
A33C U49C C70U	< 1e-05
C11A G51U U55A G62A	< 1e-05
A14G C34A U55G C70A	< 1e-05
C11U A15C G63U U65A C67A	< 1e-05
C10U A12U A42G	0.000153 ± 5.7e-05
C11A G43U U54G	< 1e-05
A12G U30A U69C	5.49e-05 ± 1.7e-05
A14G U31G G43C	< 1e-05
C16A G29U C68U C71U	6.71e-05 ± 2.1e-05
G13C A42U G43C G51C U57G A64G C71U	< 1e-05
C11A A14U C71U	6.69e-05 ± 2.1e-05
A15U C16U C58G C70U	7.87e-05 ± 2.1e-05
A33C A53U U54G	0.000173 ± 4.3e-05
A14C C34G A39C	< 1e-05
G9U G41C G59A C71U	< 1e-05
G32C G66U C70A	< 1e-05

Variant	self-cleavage kobs at 2500 uM GlcN6P [s⁻¹]
U31G G32A A64G	0.000581 ± 0.00022
A12G G13U G60U	< 1e-05
C11U U49A A52G	< 1e-05
U31G G38C U46C U65G	< 1e-05
G9U C16A U30G	< 1e-05
G29A G60U A64G	< 1e-05
C34A U47C A53U	< 1e-05
C11G G43U C58A	< 1e-05
A33C G59C A64G G66A C70A	< 1e-05
U30A U56A G60U	< 1e-05
C11U A14C C16A G38U G40A C50G	6.83e-05 ± 2.4e-05
G32U U55G C70U	0.000141 ± 5e-05
G32U G38C G40C U57C C67A	< 1e-05
G32C G62C C67U	< 1e-05
A12U C16U C70A	0.000361 ± 0.00013
A12G G32U U45G G59U	< 1e-05
A12U G51A G60U	< 1e-05
C16A A33C C71A	< 1e-05
A15C G32U C34U	< 1e-05
A14U G40C U46C A53G C71G	0.00101 ± 0.00038
A15C U31G G59C	< 1e-05
G13C G29C G38U C67G	0.000596 ± 0.0002
A15C U30A U31C C71G	0.000148 ± 5.9e-05
G26U A33C C34A U47G	< 1e-05
C10G A14C U30G G43A	< 1e-05

Variants of: B1
Test: self-cleavage kobs at 10000 uM GlcN6P; higher = faster cleavage; RNA array
Settings: with glucosamine-6-phosphate
Method in brief: as §1

Variant	self-cleavage kobs at 10000 uM GlcN6P [s⁻¹]
G13U U57G U65C	< 1e-05
A14G A33U G60U	< 1e-05
A12C A15G G43C	< 1e-05
C11A A14U C71U	4.6e-05 ± 1.3e-05
G9U G41C G59A C71U	< 1e-05
U31G G32A A64G	0.00106 ± 0.00026
A12G G13U G60U	< 1e-05
A33C G59C A64G G66A C70A	< 1e-05
G32C G62C C67U	< 1e-05
A14U G40C U46C A53G C71G	0.00202 ± 0.00042
